Patent US5767235

These substances were tested against human-thrombin (product of Sigma) (human) (UniProt P00734) (assay: not given).

First: peptide (C) Suc-Gly-Asp-Phe-Glu-Pro-Ile-Pro-Glu-Tyr-Tyr-Leu-Gln-OH
Second: peptide (J) Suc-Phe-Glu-Pro-Ile-Pro-Glu-Tyr-Tyr-NH2
The 50% Inhibition Concentration (clotting assay) of the first is 26-fold lower: 3750 ng/mL for the first, 98400 ng/mL for the second.

Compared with “peptide (K) Suc-Phe-Glu-Pro-Ile-Pro-Glu-Tyr-Tyr-NH(CH2)2COOH”, “peptide (I) Suc-Phe-Glu-Pro-Ile-Pro-Glu-Tyr-Tyr-OH” is 1.5-fold lower in 50% Inhibition Concentration (clotting assay): 30200 ng/mL for the first, 20000 ng/mL for the second.

“peptide (O) Suc-Phe-Glu-Pro-Ile-Pro-Glu-Tyr-Tyr-(L)Asu(OMe)OMe” and “peptide (R) Suc-Phe-Glu-Pro-Ile-Pro-Glu-Tyr-Tyr-Leu-NHEt” are within 1.5-fold of each other in 50% Inhibition Concentration (clotting assay): 35300 ng/mL for the first, 36100 ng/mL for the second.

First: peptide (W) Suc-Phe-Glu-Pro-Ile-Pro-Glu-Tyr-Tyr-Leu-(D)Asu(NH2)NH2
Second: peptide (N) Suc-Phe-Glu-Pro-Ile-Pro-Glu-Tyr-Tyr-NH(CH2)3OH
The 50% Inhibition Concentration (clotting assay) of the first is 2.9-fold lower: 35000 ng/mL for the first, 103000 ng/mL for the second.

Compared with “peptide (S) Suc-Phe-Glu-Pro-Ile-Pro-Glu-Tyr-Tyr-Leu-Tau-NH2”, “peptide (A) Gly-Asp-Phe-Glu-Glu-Ile-Pro-Glu-Tyr-Tyr-Leu-Gln” is 6.8-fold lower in 50% Inhibition Concentration (clotting assay): 99600 ng/mL for the first, 14700 ng/mL for the second.

Compared with “peptide (Y) Suc-Phe-Glu-Pro-Ile-Pro-Glu-Tyr-Tyr-Leu-NHPO(OH)2”, “peptide (V) Suc-Phe-Glu-Pro-Ile-Pro-Glu-Tyr-Tyr-Leu-(L)Asu(OMe)OMe” is 5-fold lower in 50% Inhibition Concentration (clotting assay): 153000 ng/mL for the first, 30400 ng/mL for the second.

Compared with “peptide (U) Suc-Phe-Glu-Pro-Ile-Pro-Glu-Tyr-Tyr-Leu-(D)Asu(OMe)OMe”, “peptide (B) Gly-Asp-Phe-Glu-Glu-Ile-Pro-Tyr-Tyr-Tyr-Leu-Gln” is 3.4-fold lower in 50% Inhibition Concentration (clotting assay): 47500 ng/mL for the first, 13800 ng/mL for the second.

Compared with “peptide (P) Suc-Phe-Glu-Pro-Ile-Pro-Glu-Tyr-Tyr-Leu-ol”, “peptide (L) Suc-Phe-Glu-Pro-Ile-Pro-Glu-Tyr-Tyr-NH(CH2)4COOH” is 6.7-fold lower in 50% Inhibition Concentration (clotting assay): 104000 ng/mL for the first, 15600 ng/mL for the second.

Going from “peptide (C) Suc-Gly-Asp-Phe-Glu-Pro-Ile-Pro-Glu-Tyr-Tyr-Leu-Gln-OH” to “peptide (J) Suc-Phe-Glu-Pro-Ile-Pro-Glu-Tyr-Tyr-NH2”, the Potency falls from 1.76 to 0.07.

Compared with “peptide (K) Suc-Phe-Glu-Pro-Ile-Pro-Glu-Tyr-Tyr-NH(CH2)2COOH”, “peptide (I) Suc-Phe-Glu-Pro-Ile-Pro-Glu-Tyr-Tyr-OH” is higher in Potency: 0.21 for the first, 0.83 for the second.

First: peptide (O) Suc-Phe-Glu-Pro-Ile-Pro-Glu-Tyr-Tyr-(L)Asu(OMe)OMe
Second: peptide (R) Suc-Phe-Glu-Pro-Ile-Pro-Glu-Tyr-Tyr-Leu-NHEt
The Potency of the first is higher: 0.19 for the first, 0.18 for the second.

First: peptide (W) Suc-Phe-Glu-Pro-Ile-Pro-Glu-Tyr-Tyr-Leu-(D)Asu(NH2)NH2
Second: peptide (N) Suc-Phe-Glu-Pro-Ile-Pro-Glu-Tyr-Tyr-NH(CH2)3OH
The Potency of the first is higher: 0.19 for the first, 0.06 for the second.

Compared with “peptide (S) Suc-Phe-Glu-Pro-Ile-Pro-Glu-Tyr-Tyr-Leu-Tau-NH2”, “peptide (A) Gly-Asp-Phe-Glu-Glu-Ile-Pro-Glu-Tyr-Tyr-Leu-Gln” is higher in Potency: 0.07 for the first, 0.45 for the second.

First: hirudin HV-1
Second: peptide (Y) Suc-Phe-Glu-Pro-Ile-Pro-Glu-Tyr-Tyr-Leu-NHPO(OH)2
The Potency of the first is higher: 95 for the first, 0.04 for the second.

First: peptide (V) Suc-Phe-Glu-Pro-Ile-Pro-Glu-Tyr-Tyr-Leu-(L)Asu(OMe)OMe
Second: peptide (U) Suc-Phe-Glu-Pro-Ile-Pro-Glu-Tyr-Tyr-Leu-(D)Asu(OMe)OMe
The Potency of the first is higher: 0.22 for the first, 0.14 for the second.

Compared with “peptide (B) Gly-Asp-Phe-Glu-Glu-Ile-Pro-Tyr-Tyr-Tyr-Leu-Gln”, “peptide (P) Suc-Phe-Glu-Pro-Ile-Pro-Glu-Tyr-Tyr-Leu-ol” is lower in Potency: 0.48 for the first, 0.06 for the second.

In the case of “peptide (L) Suc-Phe-Glu-Pro-Ile-Pro-Glu-Tyr-Tyr-NH(CH2)4COOH”, the Potency is reported as 0.42.

The substances below were run against human-thrombin (product of Sigma) (human) (UniProt P00734) (assay: chromogenic thrombin inhibition assay, potency column of Table 3 (hirudin HV-1 = 1)).

In the case of hirudin HV-1, the Potency is reported as 1.
